Laboratory results taken from paper PMC8084935 (Nature chemical biology, 2021).
Numbering of substitutions follows the chain as printed. Numbers in names are those of the source. *: point of attachment. COSH = C-terminal thiocarboxylate, S*

B1: MtThiS-COSH (thiocarboxylated ThiS from Methanothermobacter sp. CaT2) (natural protein)
chain: MVIGMKFTVITDDGKKILESGAPRRIKDVLGELEIPIETVVVKKNGEIVIEEEEIFDGDIIEVIRVIYGG-{COSH}
B2: MtTfuA-E67A (enzyme)
chain: MHGKKIIIFTGPSLSHTEASSILEAEYRPPVRRGDIQEAMKENPDIIGIIDGVFHQSPAVGHRAIIDAIRRGVKVVGGASMGALRASELSDLGMVGVGRIFRSYLEGEIESDDDVAVAFNPETLEPLSDSLVSIEFNLKRALRRGVIREDDFRKLMNTARNLFYPLRNYRRILHESGIPDDVKESLRSFLESEGRDLKREDALEVIRHIKRLAYTE
B3: MtTfuA-M84A (enzyme)
chain: B2 chain with A64E, M81A
B4: MtTfuA-F57A (enzyme)
chain: B2 chain with F54A, A64E
B5: MtTfuA-D115A (enzyme)
chain: B2 chain with A64E, D112A
B6: MtTfuA-E91Q (enzyme)
chain: B2 chain with A64E, E88Q
B7: MtTfuA-D208N (enzyme)
chain: B2 chain with A64E, D201N
B8: MtTfuA-S16A (enzyme)
chain: B2 chain with S13A, A64E
B9: MtTfuA-E91D (enzyme)
chain: B2 chain with A64E, E88D
B10: MtTfuA-K205M (enzyme)
chain: B2 chain with A64E, K198M
B11: MtTfuA-V118A (enzyme)
chain: B2 chain with A64E, V115A
B12: MtTfuA-R170A (enzyme)
chain: B2 chain with A64E, R167A
B13: MtTfuA-L87A (enzyme)
chain: B2 chain with A64E, L84A
B14: MtTfuA-D54A (enzyme)
chain: B2 chain with D51A, A64E
B15: MtTfuA-R88A (enzyme)
chain: B2 chain with A64E, R85A
B16: MtTfuA-S83A (enzyme)
chain: B2 chain with A64E, S80A
B17: MtTfuA-H65A (enzyme)
chain: B2 chain with H62A, A64E
B18: MtTfuA-R206A (enzyme)
chain: B2 chain with A64E, R199A
B19: MtTfuA-D203A (enzyme)
chain: B2 chain with A64E, D196A
B20: MtTfuA-Y107A (enzyme)
chain: B2 chain with A64E, Y104A

Key:
native MS = biological target: the molecule itself; experiment: native MS
[1] = biological target: MtYcaO (YcaO from Methanothermobacter sp. CaT2), MBP-His tag cut in the assay mixture (Methanothermobacter sp. CaT2); experiment: fluorescence polarisation

Binder | stoichiometry N (native MS) | EC50 [1]
B1 | 2 | –
B2 | – | 4.9 µM
B3 | – | 3.2 µM
B4 | – | 3.8 µM
B5 | – | > 30 µM
B6 | – | > 30 µM
B7 | – | 3.9 µM
B8 | – | 5.4 µM
B9 | – | 2.1 µM
B10 | – | 1.1 µM
B11 | – | > 30 µM
B12 | – | > 30 µM
B13 | – | > 30 µM
B14 | – | > 30 µM
B15 | – | > 30 µM
B16 | – | 4.1 µM
B17 | – | > 30 µM
B18 | – | 3.1 µM
B19 | – | 2.9 µM
B20 | – | > 30 µM
